Experimental data reported in publication PMC11488661 (Science immunology, 2024).
Changes are numbered by the printed parent chain. Read-outs that look alike come from different tables or passages of the source.

B1: GT8-D36-8_CLK19 (antibody, V domains shown)
VH: QVQLVQSGAEVKMPGASVKVSCKASGYTFTGYYMHWVRQAPGQGLEWMGWINPNSGGTNYAQKFQGRVTMTRDTSISTAYMALNSLRSDDAAVYYCAIVLADYRWRFNYWGQGTLVTVSS
VL: not shown
B2: g5-D78-23_CLK09 (antibody, V domains shown)
VH: QVQLVQSGAEVKKPGASVKVSCKASGYTFTDYYMHWVRQAPGQGLEWVGWINPNSGGMNFAQRFQDRVTMTRDTSISTAYMELSRLQSDDSAVYFCARVGGLWIGEKWTFDIWGQGTMVTVSS
VL: DIQMTQSPSSLSASVGDRVTITCQASQDISTYLNWYQQRPGKAPKLLIYGASNLATGVPSRFSGSGSGTDFTFTISSLQPEDIATYYCQLYEFFGGGTKVEIK
B3: GT8-D36-2_CLK09 (antibody, V domains shown)
VH: QVQLVQSGAEVKKPGASVKVSCKASGYTFTGYYMNWVRQAPGQGLEWMGWINPNSGGTNYAQQFQGRVTMTRDTSISTAYMELSRLKSDDTAVYYCARVDGKKKTFDIWGQGTMVTVSS
VL: B2 VL with T31N, R39K, G50D, A51V, A55E, D70A, L90Q
B4: GT8-D36-14_CLK09 (antibody, V domains shown)
VH: not shown
VL: B2 VL with T31N, R39K, G50D, A55E, L90Q
B5: GT8-D36-17_CLK09 (antibody, V domains shown)
VH: QVQLVQSGAEVKKPGASVKVSCKASGYTFSGYYIHWVRQAPGQGLKWMGWINPNSGGTNYAQKFQGRVTMTRDTSISTAYLELSRLRSDDTAVYYCARVEGLWTFDIWGQGTMVTVSS
VL: B2 VL with V15I, T31N, R39K, G50D, A55E, P80S, L90Q
B6: GT8-D36-4_CLK09 (antibody, V domains shown)
VH: not shown
VL: B2 VL with M4L, T31S, Y32S, R39K, P40T, L46V, G50D, A55E, L90Q
B7: GT8-D36-20_CLK09 (antibody, V domains shown)
VH: B5 VH with S30T
VL: B2 VL with T31N, R39K, G50D, A55E, T72I, P80S, I83M, L90Q
B8: GT8-D36-19_CLK09 (antibody, V domains shown)
VH: B5 VH with K12R, S30T, K46E, A61E
VL: B2 VL with T31N, R39K, G50D, A55E, P80S, L90Q
B9: GT8-D36-15_CLK09 (antibody, V domains shown)
VH: B5 VH with S30T, Y32H, Y60N
VL: B2 VL with T31N, R39T, G50D, A55E, P80S, L90Q, Y91F
B10: GT8-D36-3_CLK09 (antibody, V domains shown)
VH: QVQLVQSGAEVKKPGASVKVSCKASGYTFTGYYMHWVRQAPGQGLEWMGWINPNSGGTNFAQKFQGRVTMTRDTSINTAYMELSRLRSDDSAVFYCARVESKIFDIWGQGTMVTVSS
VL: B2 VL with A25T, T31N, R39K, G50D, A55E, L90Q
B11: GT8-D36-21_CLK09 (antibody, V domains shown)
VH: B5 VH with S30T
VL: B2 VL with T31N, R39K, G50D, A55E, S76G, P80S, L90Q
B12: GT8-D36-5_CLK09 (antibody, V domains shown)
VH: not shown
VL: B2 VL with A25T, T31N, R39K, G50D, A55E, L90Q
B13: g5-D78-8_CLK09 (antibody, V domains shown)
VH: QVQLVQSGAEVKKPGVSVKVSCKASGYTFNGYYMHWVRQAPGQGLEWMGWINPNNGGINIARRFEDRVTMTRDTSITTAHMELSRLRSDDSAVYYCARVGGLWFGEKWTFDIWGQGTMVTVSS
VL: B2 VL with A25T, Y32F, S52C, L90Q
B14: GT8-D36-16_CLK09 (antibody, V domains shown)
VH: B5 VH with S30T
VL: B2 VL with T31N, R39K, L46V, G50D, A55E, P80S, L90Q
B15: GT8-D36-13_CLK09 (antibody, V domains shown)
VH: B5 VH with S30T
VL: B2 VL with T31N, R39K, L46V, G50D, A55E, P80S, I83V, L90Q, K99T
B16: GT8-D36-6_CLK19 (antibody, V domains shown)
VH: QVQLVQSGAEVKKPGASVKVSCKASEYTFTGYYMHWVRQAPGQGLEWMGWINPNSGGTNYVQKFQDRVTMTRDTSINTAYMELSRLRSDDTAVYYCTPVLAYYRWRFDYWGQGTLVTVSS
VL: not shown
B17: g5-D78-5_CLK19 (antibody, V domains shown)
VH: QVQLVQSGAEVKKPGASVKVSCKASGYTFTDYFLHWVRQAPGQGLEWMGWINPNRGGVNYAQKFQGRVTMTRDTSINTAYMELSRLRSDDTAVYYCTPILTNFRWRFDFWGQGTLVTVSS
VL: DIQMTQSPSSLSASVGDRVTITCQASQDIQNYLNWYQQKPGTAPKLLIYDTSNLETGVPSRFSGSGSGTDFIFTISSLQPEDIATYYCQQYEAFGPGTKVDIK
B18: g5-D78-6_CLK19 (antibody, V domains shown)
VH: B17 VH with A24T, D31G, R55S, V58I, N77H, I99V, R106P, D108A
VL: B17 VL with Q30K, S65G, I72T, A93T
B19: GT8-D36-18_CLK21 (antibody, V domains shown)
VH: QVQLVQSGAEVKKPGASVKVSCKTSGYTFTDYYMHWVRQAPGQGLEWMGWINPNSGGTNYAQRFQGRVTMTRDTSISTAYMELSRLRSDDTAVYYCASALRDSQPWWFDPWGQGTLVTVSS
VL: DIQMTQSPSTLSASVGDRVTITCRASQSISSWLAWYQQKPGKAPKLLIYKASSLESGVPSRFSGSGSGTEFTLTISSLQPDDFATYYCQQYDTFGGGTKVEIK
B20: GT8-D36-22_CLK21 (antibody, V domains shown)
VH: not shown
VL: B19 VL with K99R
B21: CLK21 germline (GL) mAb (antibody, V domains shown)
VH: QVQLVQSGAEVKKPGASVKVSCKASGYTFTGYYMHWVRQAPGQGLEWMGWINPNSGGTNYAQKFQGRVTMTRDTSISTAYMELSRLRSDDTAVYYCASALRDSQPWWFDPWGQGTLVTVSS
VL: B19 VL with D92G
B22: g5-D78-3_CLK19 (antibody, V domains shown)
VH: QVQLVQSGAEVKKPGASVKVSCKASGYIFTDYNMHWVRQAPGQGLEWMGWINPSFGGRNIVQKFQGRVTMTRDTSISTAYMELSGLRSDDTAVYFCTPVLAPFRWPFAYWGQGTLVTVSS
VL: DIQMTQSPSSLSASVGDRVTITCQASQDINYLNWYQQKPGKAPKLLIYDASNLETGVPSRFSGSGSGTDFTFTISSLQPEDIATYYCQQYAAFGPGTKVDNK
B23: g5-D78-4_CLK19 (antibody, V domains shown)
VH: B22 VH with S54R, I76S
VL: B22 VL with N101I
B24: g5-D78-9_CLK19 (antibody, V domains shown)
VH: B22 VH with S54R
VL: B22 VL with N101I
B25: GT8-D36-10_CLK19 (antibody, V domains shown)
VH: QVQLVQSGAEVKKPGASVKVSCKASGYSFTGYYIHWVRQAPGQGLEWMGWTNPNSGGTNYAQKLEGRVTMTRDTSISTAYMELSRLRFDDTAVYYCALAGYRWRFDYWGQGTLVTVSS
VL: not shown
B26: g5-D78-22_CLK19 (antibody, V domains shown)
VH: QVQLVQSGAEVKKPGASVKVSCKASGYTFTGYYIHWVRQAPGHGLEWLGWINPNYGAVNYARKFQGRVTLTRDTSISTAFMELQSLRSDDTAIYHCTISLAGYRWGFDYWGQGALVTVSS
VL: DIQMTQSPSSLSAFVGDRVTITCQARLDIRYSLNWYQQKPGKAPNLLIYDVSNLEIGVPSRFSGSGSGTNFTFTISTLQPEDIATYYCQQYETFGPGTKVDIK
B27: g5-D78-7_CLK19 (antibody, V domains shown)
VH: B26 VH with H43Q, L48M, N54S, L70M, F80Y, S85R, S99A
VL: B26 VL with R30S, V51A, I56T, T74A, T77A, D101H

Assays:
[1] = molecular target: eOD-GT8 (monomeric ligand) (Human immunodeficiency virus 1, …)
[2] = molecular target: T1, eOD-GT8 (monomeric ligand) (Human immunodeficiency virus 1, …); assay: SPR; Carterra LSA; kinetics and affinity of antibody–antigen interactions, methods as in Cottrell et al. (ref. 56); who was immobilised is not told (the antigens are called ligands); values for groups are geometric means over the mAbs; settings: both partners purified
T1 construct: also called eOD-GT8 ligand; GT8-prime ligand

Row | Binder | Kd [1] | Kd [2]
1 | B1 | 0.411 nM | –
2 | B2 | 0.078 nM | –
3 | B3 | 0.997 nM | –
4 | B4 | 26.9 nM | –
5 | B5 | 4.09 nM | –
6 | B6 | 0.0423 nM | –
7 | B7 | 8.37 nM | –
8 | B8 | 0.958 nM | –
9 | B9 | 260 nM | –
10 | B10 | 0.13 nM | –
11 | B11 | 6.07 nM | –
12 | B12 | 1.28 nM | –
13 | B13 | 0.14 nM | –
14 | B14 | 37.9 nM | –
15 | B15 | 534 nM | –
16 | B16 | 2.03 nM | –
17 | B17 | 2 nM | –
18 | B18 | 0.26 nM | –
19 | B19 | 2.63 nM | –
20 | B20 | 2.94 nM | –
21 | B21 | – | 440 nM
22 | B22 | 0.87 nM | –
23 | B23 | 2.1 nM | –
24 | B24 | 2.1 nM | –
25 | B25 | 4.3 nM | –
26 | B26 | 100 nM | –
27 | B27 | 23 nM | –
